According to patent US20020115596:

Key:
[1] = system: (4-trans-L-Hyp)-Ala-Ser-Chg-Gln-Ser-Leu-Dox
[2] = system: Ac-(4-trans-L-Hyp)ASChgQ-SLacid
[3] = system: Ac-(4-trans-L-Hyp)ASChgQ-SThi-acid
[4] = system: Ac-(4-trans-L-Hyp)ASChgQ-StBUAla-DOX (3′)
[5] = system: Glutaryl-(4-trans-L-Hyp)ASChgQ-SI-DOX (3′)
[6] = system: Glutaryl-(4-trans-L-Hyp)ASChgQ-SV-DOX (3′)
[7] = system: Glutaryl-(4-trans-L-Hyp)SSChgQ-SI-DOX (3′)
[8] = system: Glutaryl-(4-trans-L-Hyp)SSChgQ-SL-DOX (3′)
[9] = system: Malonyl-(4-trans-L-Hyp)ASChgQ-SL-DOX (3′)
[10] = system: PEG(2)-(4-trans-L-Hyp)ASChgQ-SL-DOX (3′)
[11] = system: PEG(2)-(4-trans-L-Hyp)ASChgQ-SThi-DOX (3′)
[12] = system: PEG(2)-(4-trans-L-Hyp)SSChgQ-SL-DOX (3′)
[13] = system: PEG(4)-(4-trans-L-Hyp)-SSChgQ-SL-DOX (3′)
[14] = system: Succinyl-(4-trans-L-Hyp)ASChgQ-SAbu-DOX (3′)
[15] = system: Succinyl-(4-trans-L-Hyp)ASChgQ-SI-DOX (3′)
[16] = system: Succinyl-(4-trans-L-Hyp)ASChgQ-SThi-DOX (3′)
[17] = system: Succinyl-(4-trans-L-Hyp)ASChgQ-SV-DOX (3′)
[18] = system: Succinyl-(4-trans-L-Hyp)SSChgQ-SI-DOX (3′)
[19] = system: Succinyl-3,4-(diOH)PASChgQ-SL-DOX (3′)
[20] = system: [N-Ac-(4-trans-L-Hyp)]-Ala-Ser-Chg-Gln-Ser-Leu-Dox
[21] = system: [N-Glutaryl-(4-trans-L-Hyp)]-Ala-Ser-Chg-Gln-Ser-Leu-Dox

## free prostate specific antigen (PSA)
[1]
  time required for 50% cleavage of the oligopeptide: 50% cleavage occurred in less than 2 hours for those conjugates
[2]
  Time to 50% Substrate Cleavage by PSA: 75 min
[3]
  Time to 50% Substrate Cleavage by PSA: 20 min
[4]
  Time to 50% Substrate Cleavage by PSA: 25 min
Ac-PASChgQ-SL-acid
  Time to 50% Substrate Cleavage by PSA: 150 min
Ac-PSSChgQ-SV-acid
  Time to 50% Substrate Cleavage by PSA: 120 min
[5]
  time required for 50% cleavage of the oligopeptide: 50% cleavage occurred in less than 2 hours for those conjugates
[6]
  time required for 50% cleavage of the oligopeptide: 50% cleavage occurred in less than 2 hours for those conjugates
[7]
  time required for 50% cleavage of the oligopeptide: 50% cleavage occurred in less than 2 hours for those conjugates
[8]
  time required for 50% cleavage of the oligopeptide: 50% cleavage occurred in less than 2 hours for those conjugates
[9]
  time required for 50% cleavage of the oligopeptide: 50% cleavage occurred in less than 2 hours for those conjugates
[10]
  Time to 50% Substrate Cleavage by PSA: 20 min
[11]
  time required for 50% cleavage of the oligopeptide: 50% cleavage occurred in less than 2 hours for those conjugates
[12]
  time required for 50% cleavage of the oligopeptide: 50% cleavage occurred in less than 2 hours for those conjugates
[13]
  time required for 50% cleavage of the oligopeptide: 50% cleavage occurred in less than 2 hours for those conjugates
[14]
  time required for 50% cleavage of the oligopeptide: 50% cleavage occurred in less than 2 hours for those conjugates
[15]
  time required for 50% cleavage of the oligopeptide: 50% cleavage occurred in less than 2 hours for those conjugates
[16]
  time required for 50% cleavage of the oligopeptide: 50% cleavage occurred in less than 2 hours for those conjugates
[17]
  time required for 50% cleavage of the oligopeptide: 50% cleavage occurred in less than 2 hours for those conjugates
[18]
  time required for 50% cleavage of the oligopeptide: 50% cleavage occurred in less than 2 hours for those conjugates
[19]
  time required for 50% cleavage of the oligopeptide: 50% cleavage occurred in less than 2 hours for those conjugates
[20]
  Time to 50% Substrate Cleavage by PSA: 20 min
[21]
  time required for 50% cleavage of the oligopeptide: 50% cleavage occurred in less than 2 hours for those conjugates
